The record followed here is paper doi:10.1101/2020.08.27.270991 (bioRxiv, 2020).

Changes are numbered by the printed parent chain. Names may count otherwise.

Data set [1] concerns the target full-length Thermus thermophilus MgtE (Thermus thermophilus, UniProt Q5SMG8). Nature of the data set: ITC. (In general: In ITC the heat of successive injections is recorded.)
The data set “cryo-EM structure” deals with the molecule itself. Nature of the data set: cryo-EM structure.
The data set “cross-linking” deals with the molecule itself. Nature of the data set: cross-linking.

One may read the Kd as a measure of binding affinity in units of concentration. Read a low Kd as higher affinity. As a reminder, the stoichiometry N is the number of molecules, sites or subunits per partner or assembly.

B1: Fab antibody fragment Fab705 (Fab, V domains shown)
VH: EVKLQESGVELVKPGASVKISCKASGYSFTGYNMNWVKQSHGKSLEWIGNISPYYGTSIYNQNFKGKATLTVDRSSSTAYMQLNSLTSEDSAVYYCARGESFSNYEGYYAMDYWGQGTSVIVSS
VL: DVLMTQTPLSLPVSLGDQASISCRSSQSLVHSDGNTYLHWYLQKPGQSPKLLIYKVSNRFSGVPDRFSGSGSGTDFTLKISRVEAEDLGVYFCSQSTHVPWTFGGGTKLEIK
As to B1, binding in data set [1] was characterised by a dissociation constant (Kd) of 253 ± 71.1 nM.

B2: full-length Thermus thermophilus MgtE (natural protein, UniProt Q5SMG8 1-450, looked up)
chain: MEEKLAVSLQEALQEGDTRALREVLEEIHPQDLLALWDELKGEHRYVVLTLLPKAKAAEVLSHLSPEEQAEYLKTLPPWRLREILEELSLDDLADALQAVRKEDPAYFQRLKDLLDPRTRAEVEALARYEEDEAGGLMTPEYVAVREGMTVEEVLRFLRRAAPDAETIYYIYVVDEKGRLKGVLSLRDLIVADPRTRVAEIMNPKVVYVRTDTDQEEVARLMADYDFTVLPVVDEEGRLVGIVTVDDVLDVLEAEATEDIHKLGAVDVPDLVYSEAGPVALWLARVRWLVILILTGMVTSSILQGFESVLEAVTALAFYVPVLLGTGGNTGNQSATLIIRALATRDLDLRDWRRVFLKEMGVGLLLGLTLSFLLVGKVYWDGHPLLLPVVGVSLVLIVFFANLVGAMLPFLLRRLGVDPALVSNPLVATLSDVTGLLIYLSVARLLLEAV
Consider B2, for which, in the data set “cryo-EM structure”, the “stoichiometry N” value turned out to be 2.

B3: MgtE double cysteine mutant T336C/L421C (natural protein, Thermus thermophilus, UniProt Q5SMG8 1-450, looked up)
chain: B2 chain with T336C, L421C
Turning to B3, in the data set “cross-linking”, the binding result was “binds”.
